{"source": "patent US20230147852A1", "about": "(SORRENTO THERAPEUTICS, published 2023)", "binders": {"B1": {"name": "5C8 (antibody, V domains shown)", "VH": "QVQLVQSGAEVKKPGASVKVSCKASGYTFTSYGISWVRQAPGQGLEWMGWISAYNGNTNYAQKLQGRVTMTTDTSTSTAYMELRSLRSEDTAVYYCARDSGYDFEDWFDPWGQGTLVTVSS", "VL": "not shown", "notes": "also called anti-LAG3 antibody 5C8"}, "B2": {"name": "1C5-3A6 (antibody, V domains shown)", "VH": "QVQLVQSGAEVKKPGASVKVSCKASGYTLTDYYIHWVRQAPGQGLEWVGWINPNSGGTNYEQKFQGRVTMTWDTSISTAYMELSRLTSDDTAVYYCAREGWSNDWYVGYYFDYWGQGTLVTVSS", "VL": "DIQMTQSPLSLSASVGDRVSITCRASQYIGTSLNWYEQKPGNSPKLLITGASRLQSGVPSRFSGSGSGTDFTLTINTLQPDDLATYYCHQSYDDPPTFGQGTKLEIK", "notes": "also called anti-LAG3 antibody 1C5-3A6"}, "B3": {"name": "8D9 (antibody, V domains shown)", "VH": "QVQLVQSGAEVRKPGSSVKVSCKASGGTFSNYAFSWVRQAPGLGLEWLGAIIPEFDTANYAQKFKDRVTITADDSTTTVYMELSSLRSEDTAVYYCASGMWDYYGSGSSIDYWGQGTLVTVSS", "VL": "QSVLTQPPSASGTPGQRVTISCSGSNSDIGRNPVNWYHQFPGTAPKLLIFSNSHRPSGVPDRFSGSKSGTSASLAIGGLQSDDEADYYCAAWSDSLNGYVFGTGTKLTVL", "notes": "also called anti-LAG3 antibody 8D9; Clone 8D9"}}, "key": {"[1]": {"target": "T1, Recombinant human LAG3-His (Sino Biological; catalogue No. 16498-H08H) (human, UniProt P18627 23-450)", "T1 construct": "also called human LAG3 His-tag protein; CD223", "T1 sequence": "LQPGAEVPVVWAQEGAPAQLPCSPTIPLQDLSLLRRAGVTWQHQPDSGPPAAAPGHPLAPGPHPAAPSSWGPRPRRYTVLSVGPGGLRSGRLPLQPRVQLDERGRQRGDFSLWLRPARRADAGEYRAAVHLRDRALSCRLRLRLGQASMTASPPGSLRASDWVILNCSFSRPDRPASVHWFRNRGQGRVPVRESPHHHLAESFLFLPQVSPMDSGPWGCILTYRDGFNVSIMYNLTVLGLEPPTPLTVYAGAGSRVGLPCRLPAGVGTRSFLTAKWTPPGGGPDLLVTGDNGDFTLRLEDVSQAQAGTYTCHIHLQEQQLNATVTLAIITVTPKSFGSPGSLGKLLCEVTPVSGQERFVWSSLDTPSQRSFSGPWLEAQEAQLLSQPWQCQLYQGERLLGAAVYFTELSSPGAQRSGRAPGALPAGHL", "experiment": "ELISA: antibody coated at 5 µg/mL, soluble human LAG3-His titrated (x-axis: Human LAG3, µg/ml), OD at 450nm"}, "Mouse LAG3 [2]": {"target": "T2, Mouse LAG3 (mouse, UniProt Q61790)", "T2 construct": "recombinant, His-tagged, coated on a Ni-NTA plate; also called mouse LAG3-His Tag recombinant protein", "T2 sequence (antigen, looked up)": "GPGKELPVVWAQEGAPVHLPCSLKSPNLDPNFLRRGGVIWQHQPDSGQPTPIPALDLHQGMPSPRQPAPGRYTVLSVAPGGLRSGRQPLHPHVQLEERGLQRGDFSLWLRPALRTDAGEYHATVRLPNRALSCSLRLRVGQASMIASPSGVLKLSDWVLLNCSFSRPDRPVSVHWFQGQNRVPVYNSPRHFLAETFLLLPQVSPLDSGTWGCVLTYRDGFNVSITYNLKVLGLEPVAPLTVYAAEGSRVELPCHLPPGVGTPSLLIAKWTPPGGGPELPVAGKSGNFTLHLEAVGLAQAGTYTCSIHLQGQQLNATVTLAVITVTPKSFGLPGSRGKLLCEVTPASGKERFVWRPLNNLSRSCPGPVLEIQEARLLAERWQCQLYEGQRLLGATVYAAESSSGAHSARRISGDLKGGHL", "experiment": "ELISA: LAG3-His coated at 2 µg/mL on a Ni-NTA plate, antibody (IgG4) at 2 µg/mL, anti-human Fc-HRP, OD at 450nm"}, "Mouse LAG3 [3]": {"target": "T2, Mouse LAG3", "experiment": "[…], antibody ([…]) at 2 µg/mL, […]"}, "[4]": {"target": "T1, Recombinant human LAG3-His (Sino …)", "experiment": "SPR (Biacore), antibody captured by anti-human Fc, human LAG3-His as analyte, 1:1 model"}, "[5]": {"target": "T1, Recombinant human LAG3-His (Sino …)", "experiment": "SPR (Biacore): antibody captured on anti-human Fc, human LAG3-His in solution"}, "[6]": {"target": "T3, human LAG3 on LAG3/NFAT-Luc reporter Jurkat cells (human, UniProt P18627)", "T3 construct": "on the surface of transfected Jurkat cells; also called human LAG3 expressed on Jurkat cells (BPS Biosciences; catalogue No. 71278)", "T3 sequence (antigen, looked up)": "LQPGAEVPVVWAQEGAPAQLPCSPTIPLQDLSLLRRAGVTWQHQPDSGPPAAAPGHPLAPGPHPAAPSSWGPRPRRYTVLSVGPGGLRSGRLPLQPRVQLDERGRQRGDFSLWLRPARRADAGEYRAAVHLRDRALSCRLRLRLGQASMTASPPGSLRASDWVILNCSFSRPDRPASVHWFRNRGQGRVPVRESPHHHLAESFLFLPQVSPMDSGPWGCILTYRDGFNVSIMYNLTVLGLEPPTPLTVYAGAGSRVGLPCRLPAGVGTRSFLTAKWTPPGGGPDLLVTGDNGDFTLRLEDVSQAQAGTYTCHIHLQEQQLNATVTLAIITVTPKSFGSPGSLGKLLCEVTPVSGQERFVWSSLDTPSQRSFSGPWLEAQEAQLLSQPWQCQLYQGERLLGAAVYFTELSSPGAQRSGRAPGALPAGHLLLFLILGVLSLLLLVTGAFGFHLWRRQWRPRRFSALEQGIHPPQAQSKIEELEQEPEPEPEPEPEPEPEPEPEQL", "experiment": "Flow cytometry on human LAG3/NFAT-Luc Jurkat cells, ΔMFI = LAG3 Jurkat minus wild-type Jurkat, AF647 anti-human IgG"}, "[7]": {"target": "T4, recombinant human LAG3-Fc Tag protein (Sino Biological; catalogue no. 16498-H05H) (human, UniProt P18627)", "T4 construct": "recombinant, soluble", "T4 sequence (fusion chain, looked up)": "T1 sequence", "experiment": "ELISA: antibody coated at 5 µg/mL captures human LAG3-Fc at 2 µg/mL; how the black bars (LAG3 binding) were detected is not told"}}, "data": [{"binder": "B1", "values": [{"measurement": "EC50 (read off the curve)", "setting": "[1]", "value": "~0.02", "unit": "µg/mL"}, {"measurement": "binding result", "setting": "Mouse LAG3 [2]", "value": "no binding (tested: 2 µg/mL)"}]}, {"binder": "B2", "values": [{"measurement": "binding result", "setting": "Mouse LAG3 [3]", "value": "binds"}, {"measurement": "Kd", "setting": "[4]", "value": 0.0643, "unit": "nM"}, {"measurement": "EC50 (read off the curve)", "setting": "[1]", "value": "~0.07", "unit": "µg/mL"}]}, {"binder": "B3", "values": [{"measurement": "binding result", "setting": "Mouse LAG3 [3]", "value": "no binding (tested: 2 µg/mL)"}, {"measurement": "binding result", "setting": "[5]", "value": "binds"}, {"measurement": "binding result", "setting": "[6]", "value": "binds"}, {"measurement": "binding result", "setting": "[7]", "value": "binds"}]}]}
